Patent publication US20240254229A1 (Molecular Partners, published 2024)

Legend:
[1] = biological target: T1, biotinylated extracellular domain of human CD33 (SEQ ID NO: 87), Fc and Avi tagged (human, UniProt P20138 18-259, biotinylated with BirA-GST (Avi tag)); test: SPR (ProteOn XPR36), target on GLC chip, DARPin as analyte
T1 construct: also called hCD33; human target hCD33
Source text: (§1) For that, DARPin® protein #27, DARPin® protein #29, DARPin® protein #47 and DARPin® protein #48 and DARPin® protein #49, DARPin® protein #50, DARPin® protein #51, DARPin® protein #52, DARPin® protein #31, DARPin® protein #53, DARPin® protein #54, DARPin® protein #55, DARPin® protein #34, DARPin® protein #33, DARPin® protein #39 and DARPin® protein #36 were subcloned and expressed as described above into derivatives of the pQE30 (Qiagen) expression vector, containing an N-terminal His-tag, CD33, CD123 and/or CD70 binding ankyrin repeat domains, followed by a CD3 specific ankyrin repeat domain and for some constructs by a human serum albumin specific ankyrin repeat domain.
(§2) Briefly, biotinylated human CD70, CD123 and CD33 was diluted in PBST (PBS, pH 7.4 containing 0.005% Tween 20®) and coated on a GLC chip (BioRad) to a level of around 200, 460 and 450 resonance units (RU) respectively. HSA in NaOAc pH 5.0 was directly immobilized on the GLC chip to a level of 800 RU. Bio.CD70, bio. CD33 and bio. CD123 required to have Neutravidin coated first to a level of 6000 RU before the biotinylated targets could be applied. The interaction of the selected ankyrin repeat proteins and human CD70, CD123 and CD33 was then measured by injecting 300 μl running buffer (PBS, pH 7.4 containing 0.005% Tween 20®) containing serial dilutions of ankyrin repeat proteins covering a concentration range between 100 nM and 2.6 nM (100, 40, 16, 6.4 and 2.6 nM respectively) for multi-trace SPR measurements, with an association of 120 s and dissociation of 1200 s using a constant flow of 100 μl/min. The regeneration was performed using 30 μl of 4 mM Glycine pH 2. The signals (i.e. resonance unit (RU) values) of the interspots and a reference injection (i.e. injection of running buffer only) were subtracted from the RU traces obtained after injection of ankyrin repeat protein (double-referencing).

[2] = biological target: T2, human serum albumin (human, UniProt P02768 25-609); test: SPR (ProteOn XPR36), target on GLC chip
T2 construct: also called HSA; SA
Source text: as §1, §2

[3] = biological target: T3, biotinylated extracellular domain of human CD123 (SEQ ID NO: 88), Fc and Avi tagged (human, UniProt P26951 19-303, biotinylated with BirA-GST (Avi tag)); test: SPR (ProteOn XPR36), target on GLC chip
T3 construct: also called hCD123
T3 sequence: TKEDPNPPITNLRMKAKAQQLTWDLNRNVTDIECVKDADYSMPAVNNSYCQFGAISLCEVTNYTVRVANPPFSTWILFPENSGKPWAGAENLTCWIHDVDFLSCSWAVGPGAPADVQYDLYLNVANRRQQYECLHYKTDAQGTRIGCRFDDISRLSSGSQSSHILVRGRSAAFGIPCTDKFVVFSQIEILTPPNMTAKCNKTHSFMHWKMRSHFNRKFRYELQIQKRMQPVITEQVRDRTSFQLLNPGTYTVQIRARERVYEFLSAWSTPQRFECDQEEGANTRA
Source text: as §1, §2

[4] = biological target: T4, extracellular domain of human CD70 (SEQ ID NO: 89), hCD70-Fc-trimer, ACRO Biosystems (human, UniProt P32970 52-193, chemically biotinylated where the biotinylated form was used); test: SPR (ProteOn XPR36), target on GLC chip
T4 construct: also called human CD70-Fc-trimer; Bio.CD70
T4 sequence: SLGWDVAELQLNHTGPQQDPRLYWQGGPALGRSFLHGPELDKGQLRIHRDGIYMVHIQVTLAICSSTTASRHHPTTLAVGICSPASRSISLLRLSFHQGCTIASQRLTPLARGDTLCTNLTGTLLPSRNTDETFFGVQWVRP
Source text: as §1, §2

[5] = biological target: T2, human serum albumin; test: SPR (ProteOn XPR36), target on GLC chip, DARPin as analyte
Source text: as §1, §2

[6] = biological target: T3, biotinylated extracellular domain of …; test: as above
Source text: as §1, §2

[7] = biological target: T4, extracellular domain of human CD70 (SEQ …); test: as above
Source text: as §1, §2

T1 sequence (P20138 18-259 R69G): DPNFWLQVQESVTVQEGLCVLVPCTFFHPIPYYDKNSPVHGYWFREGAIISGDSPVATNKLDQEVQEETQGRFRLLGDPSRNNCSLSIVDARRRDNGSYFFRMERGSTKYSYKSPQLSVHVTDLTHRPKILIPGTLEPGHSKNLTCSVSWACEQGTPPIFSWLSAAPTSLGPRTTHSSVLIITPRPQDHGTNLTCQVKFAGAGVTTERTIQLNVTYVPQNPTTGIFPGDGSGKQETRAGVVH
T2 sequence (P02768 25-609 limits assumed): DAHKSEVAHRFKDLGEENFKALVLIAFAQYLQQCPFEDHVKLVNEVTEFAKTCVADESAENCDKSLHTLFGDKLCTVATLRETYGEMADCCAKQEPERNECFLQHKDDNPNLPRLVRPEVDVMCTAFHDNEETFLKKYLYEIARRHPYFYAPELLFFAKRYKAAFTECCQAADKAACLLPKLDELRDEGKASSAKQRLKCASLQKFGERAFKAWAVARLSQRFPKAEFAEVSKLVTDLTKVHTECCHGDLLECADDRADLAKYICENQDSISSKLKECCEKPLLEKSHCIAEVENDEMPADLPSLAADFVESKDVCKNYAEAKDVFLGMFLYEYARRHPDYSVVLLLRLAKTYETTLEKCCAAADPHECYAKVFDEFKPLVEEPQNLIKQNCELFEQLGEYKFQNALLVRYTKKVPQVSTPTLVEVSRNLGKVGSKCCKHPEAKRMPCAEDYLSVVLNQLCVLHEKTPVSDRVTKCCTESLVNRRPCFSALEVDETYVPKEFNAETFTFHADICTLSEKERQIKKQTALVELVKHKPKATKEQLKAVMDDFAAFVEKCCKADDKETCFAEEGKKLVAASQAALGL

| Binder | Kd [1] | binding result [2] | binding result [3] | binding result [4] | Kd [5] | Kd [6] | Kd [7] |
| --- | --- | --- | --- | --- | --- | --- | --- |
| DARPin® protein #36 (designed binder, CD33-specific ankyrin repeat domain; not shown: N-terminal His-tag) DLGVKLLLAASRGQLDEVRILLKAGADVNAKDIDEGYTPLHIAAYYGHLEIVEVLLKAGADVNAKDRYGKTPLHLAAISGHLEIVEVLLKAGADVNAQDDKGDTPADLAADYGHQDIAEVLQKAA | 6.7 nM | no binding (tested: 100 nM (highest concentration)) | no binding (tested: 100 nM (highest concentration)) | no binding (tested: 100 nM (highest concentration)) |  |  |  |
| DARPin® protein #39 (designed binder, CD33-specific ankyrin repeat domain; not shown: N-terminal His-tag) DLGVKLLRAAVHGQLDEVRILLKAGADVNAKDTDGETPLHYAAQFGHLEIVEVLLKAGADVNAKDAYGATPLHWAAWHGHLEIVEVLLKAGADVNAQDVSGATPADLAAKVGHQDIAEVLQKAA | 24 nM | no binding (tested: 100 nM (highest concentration)) | no binding (tested: 100 nM (highest concentration)) | no binding (tested: 100 nM (highest concentration)) |  |  |  |
| DARPin® protein #47 (designed binder, HSA-CD123-CD33-CD3; not shown: N-terminal His-tag) DLGKKLLEAARAGQDDEVRELLKAGADVNAKDYFSHTPLHLAARNGHLKIVEVLLKAGADVNAKDFAGKTPLHLAAADGHLEIVEVLLKAGADVNAQDIFGKTPADIAADAGHEDIAEVLQKAAGSPTPTPTTPTPTPTTPTPTPTGSDLGKKLLEAALEGQLDEVRELLKAGADVNAKDQEGYTPLHLAAALGHLEIVEVLLKAGADVNAKDSIGRTPLHLAAYKGHLEIVEVLLKAGADVNAQDLLGETPADLAAEQGHQDIAEVLQKAAGSPTPTPTTPTPTPTTPTPTPTGSDLGVKLLLAASRGQLDEVRILLKAGADVNAKDIDEGYTPLHIAAYYGHLEIVEVLLKAGADVNAKDRYGKTPLHLAAISGHLEIVEVLLKAGADVNAQDDKGDTPADLAADYGHQDIAEVLQKAAGSPTPTPTTPTPTPTTPTPTPTGSDLGQKLLEAAWAGQDDEVRELLKAGADVNAKNSRGWTPLHTAAQTGHLEIFEVLLKAGADVNAKDDKGVTPLHLAAALGHLEIVEVLLKAGADVNAQDSWGTTPADLAAKYGHEDIAEVLQKAA | 5.4 nM |  |  | no binding (tested: 100 nM (highest concentration)) | 15 nM | 8 nM |  |
| DARPin® protein #48 (designed binder, HSA-HSA-CD123-CD33-CD3; not shown: N-terminal His-tag) DLGKKLLEAARAGQDDEVRELLKAGADVNAKDYFSHTPLHLAARNGHLKIVEVLLKAGADVNAKDFAGKTPLHLAAADGHLEIVEVLLKAGADVNAQDIFGKTPADIAADAGHEDIAEVLQKAAGSPTPTPTTPTPTPTTPTPTPTGSDLGKKLLEAARAGQDDEVRELLKAGADVNAKDYFSHTPLHLAARNGHLKIVEVLLKAGADVNAKDFAGKTPLHLAAADGHLEIVEVLLKAGADVNAQDIFGKTPADIAADAGHEDIAEVLQKAAGSPTPTPTTPTPTPTTPTPTPTGSDLGKKLLEAALEGQLDEVRELLKAGADVNAKDQEGYTPLHLAAALGHLEIVEVLLKAGADVNAKDSIGRTPLHLAAYKGHLEIVEVLLKAGADVNAQDLLGETPADLAAEQGHQDIAEVLQKAAGSPTPTPTTPTPTPTTPTPTPTGSDLGVKLLLAASRGQLDEVRILLKAGADVNAKDIDEGYTPLHIAAYYGHLEIVEVLLKAGADVNAKDRYGKTPLHLAAISGHLEIVEVLLKAGADVNAQDDKGDTPADLAADYGHQDIAEVLQKAAGSPTPTPTTPTPTPTTPTPTPTGSDLGQKLLEAAWAGQDDEVRELLKAGADVNAKNSRGWTPLHTAAQTGHLEIFEVLLKAGADVNAKDDKGVTPLHLAAALGHLEIVEVLLKAGADVNAQDSWGTTPADLAAKYGHEDIAEVLQKAA | 4.2 nM |  |  | no binding (tested: 100 nM (highest concentration)) | 1.1 nM | 5.1 nM |  |
| DARPin® protein #49 (designed binder, CD123-CD33-CD3-HSA; not shown: N-terminal His-tag) DLGKKLLEAALEGQLDEVRELLKAGADVNAKDQEGYTPLHLAAALGHLEIVEVLLKAGADVNAKDSIGRTPLHLAAYKGHLEIVEVLLKAGADVNAQDLLGETPADLAAEQGHQDIAEVLQKAAGSPTPTPTTPTPTPTTPTPTPTGSDLGVKLLLAASRGQLDEVRILLKAGADVNAKDIDEGYTPLHIAAYYGHLEIVEVLLKAGADVNAKDRYGKTPLHLAAISGHLEIVEVLLKAGADVNAQDDKGDTPADLAADYGHQDIAEVLQKAAGSPTPTPTTPTPTPTTPTPTPTGSDLGQKLLEAAWAGQDDEVRELLKAGADVNAKNSRGWTPLHTAAQTGHLEIFEVLLKAGADVNAKDDKGVTPLHLAAALGHLEIVEVLLKAGADVNAQDSWGTTPADLAAKYGHEDIAEVLQKAAGSPTPTPTTPTPTPTTPTPTPTGSDLGKKLLEAARAGQDDEVRELLKAGADVNAKDYFSHTPLHLAARNGHLKIVEVLLKAGADVNAKDFAGKTPLHLAAADGHLEIVEVLLKAGADVNAQDIFGKTPADIAADAGHEDIAEVLQKAA | 6.8 nM |  |  | no binding (tested: 100 nM (highest concentration)) | 14 nM | 23 nM |  |
| DARPin® protein #52 (designed binder, not shown: N-terminal His-tag) DLGYKLLQAAYDGQLDEVRILLKAGADVNAKDSRGQTPLHYAASIGHLEIVEVLLKAGADVNAKDDHGWTPLHLAAWSGHLEIVEVLLKAGADVNAQDQEGTTPADLAAVQGHQDIAEVLQKAAGSPTPTPTTPTPTPTTPTPTPTGSDLGVKLLLAASRGQLDEVRILLKAGADVNAKDIDEGYTPLHIAAYYGHLEIVEVLLKAGADVNAKDRYGKTPLHLAAISGHLEIVEVLLKAGADVNAQDDKGDTPADLAADYGHQDIAEVLQKAAGSPTPTPTTPTPTPTTPTPTPTGSDLGQKLLEAAWAGQDDEVRELLKAGADVNAKNSRGWTPLHTAAQTGHLEIFEVLLKAGADVNAKDDKGVTPLHLAAALGHLEIVEVLLKAGADVNAQDSWGTTPADLAAKYGHEDIAEVLQKAAGSPTPTPTTPTPTPTTPTPTPTGSDLGKKLLEAARAGQDDEVRELLKAGADVNAKDYFSHTPLHLAARNGHLKIVEVLLKAGADVNAKDFAGKTPLHLAAADGHLEIVEVLLKAGADVNAQDIFGKTPADIAADAGHEDIAEVLQKAA | 5.7 nM |  | no binding (tested: 100 nM (highest concentration)) |  | 48 nM |  | 0.27 nM |
| DARPin® protein #31 (designed binder, CD70-CD123-CD33-CD3; not shown: N-terminal His-tag) DLGYKLLQAAYDGQLDEVRILLKAGADVNAKDSRGQTPLHYAASIGHLEIVEVLLKAGADVNAKDDHGWTPLHLAAWSGHLEIVEVLLKAGADVNAQDQEGTTPADLAAVQGHQDIAEVLQKAAGSPTPTPTTPTPTPTTPTPTPTGSDLGKKLLEAALEGQLDEVRELLKAGADVNAKDQEGYTPLHLAAALGHLEIVEVLLKAGADVNAKDSIGRTPLHLAAYKGHLEIVEVLLKAGADVNAQDLLGETPADLAAEQGHQDIAEVLQKAAGSPTPTPTTPTPTPTTPTPTPTGSDLGVKLLRAAVHGQLDEVRILLKAGADVNAKDTDGETPLHYAAQFGHLEIVEVLLKAGADVNAKDAYGATPLHWAAWHGHLEIVEVLLKAGADVNAQDVSGATPADLAAKVGHQDIAEVLQKAAGSPTPTPTTPTPTPTTPTPTPTGSDLGQKLLEAAWAGQDDEVRELLKAGADVNAKNSRGWTPLHTAAQTGHLEIFEVLLKAGADVNAKDDKGVTPLHLAAALGHLEIVEVLLKAGADVNAQDSWGTTPADLAAKYGHEDIAEVLQKAA | 11 nM | no binding (tested: 100 nM (highest concentration)) |  |  |  | 10 nM | 0.31 nM |
